Measurements reported in the nanobody polyreactivity screen of Harvey et al. (2022).

assay: yeast display, Sf9 membrane polyspecificity reagent, FACS + sequencing; frameworks hold sequencing errors
Procedure, shortened: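 A nanobody's polyreactivity label depends on the gate it was sorted from. Yeast display cells were stained with 10% biotinylated, detergent-solubilized Sf9 membrane reagent for 1 hour at 4 °C, enriched on streptavidin microbeads and sorted by FACS. The low and high (top ~1%) gates were set on anti-HA fluorescence for expression and streptavidin fluorescence for reagent binding.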

Row | Sequence | polyreactivity (PSR sort gate)
1 | QVQLVESGGGLVQAGGSLRLSCAASGRIFSPYTMGWYRQAPGKERELVAAINERGTSTYYADTVKGRFSISRDNAKNTVYLQKNSLKPEDTAVYYCAARVRQRRYGTTSGGYDYWGQGTQVTVSS | high polyreactivity
2 | QVQLVESGGGLVQAGGSLRLSCAASGRIFSQYAMGWYRQAPGKERELVAAISRRTGSTYYADSVKGRFTISRDNAKNTVYLQMNSLKPEDTAVYYCNKARLGWSYRQDDYLGQGTQVTVSS | high polyreactivity
3 | QVQLVESGGGLVQAGGSLRLSCAASGRIFSRNAMGWYRQAPGKEREFVAAISRRGTSTYYADSVKGRFTISRDNAKNTVYLQMNSLIPEDTAVYYCNAGGSPWYKPVYYRALYDYWGQGTQVTVSS | high polyreactivity
4 | QVQLVESGGGLVQAGGSLRLSCAASGRIFSRNAMGWYRQAPGKERELVAAITSGGSTYYADSVKGRFTISRDNAKNTVYLQMNSLKPEDTAVFYCAKRLTYYSWYHRYDYWGQGTQVTVLS | high polyreactivity
5 | QVQLVESGGGLVQAGGSLRLSCAASGRIFSRYAMGWYRQAPGKERELVAAINKSGGSTYYADSVKGRFTISRDNAKNTVYLQMNSLKPEDTAVYYCATDDPVYDYDYWGQGTQVTVSS | high polyreactivity
6 | QVQLVESGGGLVQAGGSLRLSCAASGRIFSRYAMGWYRQAPGKERELVAAISRRGGSTYYADSVKGRFTISRDNAKNTVYLQMNSLKPEDTAVYYCAADFSPYYDLATEISDYWGQGTQVTVSS | high polyreactivity
7 | QVQLVESGGGLVQAGGSLRLSCAASGRIFSRYAMGWYRQAPGKERELVAAITQSGTSTYYADSVKGRFTISRDNAKNTVYLQMKSLKPEDTAVYYCNAYRQYRYDYWGQGTQVTVSS | low polyreactivity
8 | QVQLVESGGGLVQAGGSLRLSCAASGRIFSRYAMGWYRQAPGKEREMVAAIRSNGGRTYYADSVKGRFTISRDNAKNTVYLQMNSLKPEDTAVYYCAAAGGGKVSYRDYDYWGQGTQVTVSS | high polyreactivity
9 | QVQLVESGGGLVQAGGSLRLSCAASGRIFSRYAMGWYRQAPGTERELVAAINKSGGSTYYADSVKGRFTISRDNAKNTVYLQMNSLKPEDTAVYYCNAVYYWYKGDYWGQGTQVTVSS | high polyreactivity
10 | QVQLVESGGGLVQAGGSLRLSCAASGRIFSRYAMGWYRQAPGTERELVAAISASGGSTYYADSVKGRFTISRDNAKNTVYLQMNSLKPEDTAVYYCNAYQTSTTLFPGYGYWGQGTQVTVSS | low polyreactivity
11 | QVQLVESGGGLVQAGGSLRLSCAASGRIFSRYTMGWYRQAPGKERELVAAISSRGGSTYYADSVKGRFTISRDNAKNTVYLQMNSLKPEDTAVYYCNTPSYSGSSPYDHWGQGTQVTVSS | high polyreactivity
12 | QVQLVESGGGLVQAGGSLRLSCAASGRIFSRYTMGWYRQAPGKERELVAGITRGGGSTYYADSVKGRFTISRDNAKNTVYLQMNSLKPEDNAVYYCNAETSYAWWHYDYWGQGTQVTVSS | low polyreactivity
13 | QVQLVESGGGLVQAGGSLRLSCAASGRIFSSNAMGSYRQAPGKERELVAGISIRGGSTYYADSVKGRFTISRDNAKNTVYLQMNSLKPEDTAVYYCAKDGRRRRTFDYWGQGTQVTVSS | high polyreactivity
14 | QVQLVESGGGLVQAGGSLRLSCAASGRIFSSYALGWYRQARGKERELVAAISASGGRTYYADSVKGRCTISRDNAKNTVYLQMNSLKPEDTAVYYCNRGYISGSVVERYYWGQGTQVTVSS | high polyreactivity
15 | QVQLVESGGGLVQAGGSLRLSCAASGRIFSSYAMGWYRQAPGKERELVAAISGSGGRTYYADSVKGRFTISRDNAKNTVYLQMNSLKPEDTAVYYCNARRRSPYSTGVAYDYWGQGTQVTVSS | high polyreactivity
16 | QVQLVESGGGLVQAGGSLRLSCAASGRIFSSYAMGWYRQAPGKERELVAAISSSGGNTYYADSVKGRFTISRDNAKNTVYLQMNSLKPEDTAVYYCNTRWVHRDWYDYWGLGTQVTVSS | high polyreactivity

Row | Sequence | polyreactivity (PSR sort gate)
17 | QVQLVESGGGLVQAGGSLRLSCAASGRIFSSYAMGWYRQAPGKERELVAANSRSGARTYYADSVKGRFTISRDNAKNTVYLQMNSLKPEDTAVYYCAAVTVAGYDYWGQGTQVTVSS | high polyreactivity
18 | QVQLVESGGGLVQAGGSLRLSCAASGRIFSTNAMGWYRPAPGKERELVAAINWSTGSYVLRRSVKGRFTISRDTAKNTVYLQMNSLKPEDTAVYYCAATWRNPGKATQRYYYWGQGTQVTVSS | high polyreactivity
19 | QVQLVESGGGLVQAGGSLRLSCAASGRIFSTYAMGWYRQAPGKERELVAAINKIGGSTYYADSVKGRITISRDNAKNTVYLQMNSLKPEDTAVYYCAADAPYYPVRRYYYWGQGTQVTVSS | low polyreactivity
20 | QVQLVESGGGLVQAGGSLRLSCAASGRIFSTYAMGWYRQAPGKERELVAAITNSAGSTYYADSVKGRFTISRDNAKNTVYLHMNSLKPEDTALYYCATGWSRISYGFDYWGQGTLVTVSS | low polyreactivity
21 | QVQLVESGGGLVQAGGSLRLSCAASGRIFSTYAMGWYRQAPGKERELVAAITWDGRTYYADSVKGRFTISRDNAKNTVYLQMNSLKPEDTAVYYCAADGEYRYDWEYESWGQGTQVTVSS | low polyreactivity
22 | QVQLVESGGGLVQAGGSLRLSCAASGRIFSVYAMGWYRQAPGKEREFVAAITKGGVGTYYADSVKGRFTISRDNAKNTVSLQMNCLKPEDTAVYYCAARGTSRQTWLFRYNWNDYWGQGTQVTVSS | high polyreactivity
23 | QVQLVESGGGLVQAGGSLRLSCAASGRIFSVYAMGWYRQAPGKEREFVAAITKGGVGTYYADSVKGRFTISRDNAKNTVYLQMNSLKPEDTAVYYGAARHYYGADRYYSWGQGTQVTVSS | high polyreactivity
24 | QVQLVESGGGLVQAGGSLRLSCAASGRIFSVYAMGWYRQEPGKERELVAAITRNGATTYYADSVKGRFTISRDNAKNTVYLQMNSLKPEDTAVYYCAARPLFASRTKYGYWGQGTQVTVSS | high polyreactivity
25 | QVQLVESGGGLVQAGGSLRLSCAASGRIFSVYTKGWYRQAPGKERELVATISSGGRTNYADSVKGRFTISRDNAKNTVYLQINSLKPEDSAVYYCAAVPYGFVGYDDYWGQGSQVTVSS | low polyreactivity
26 | QVQLVESGGGLVQAGGSLRLSCAASGRIFSVYTMGLYRQAPGKERELGAAISSGGRTYYADSVKGRFTISRDNAKNTVYLQMNSLKPEDTAVYYCAAGSHYAFYYWGQGTQVTVSS | high polyreactivity
27 | QVQLVESGGGLVQAGGSLRLSCAASGRIFSWYAMGWYRQAPGKERELVAAITVRGSTYYADSVKGRFTISRDNAKNTVYLQMNSLKPEDTAVYYCAAGGYPGTTYYGYDYWGQGTQVTVSS | low polyreactivity
28 | QVQLVESGGGLVQAGGSLRLSCAASGRIFSWYAMGWYRQAPGKERELVARITSGVSTNYADSVKGRFTISRDNEKNTVYLQMNSLKPEDTAVYDCAADDYSCLYYSSTYRYEYWGQGTQVTVSS | low polyreactivity
29 | QVQLVESGGGLVQAGGSLRLSCAASGRIFSYNAMGWYRQAPGKERDLVASISGGGSTYADSVKGRFTISRDNAKNTVYLQMNRLKPADTAVYYCNAVHFSYEYDYWGQGTQVTVSS | high polyreactivity
30 | QVQLVESGGGLVQAGGSLRLSCAASGRIFSYNARGWYRQAPGKEWELVAAISSGGSTYYADSVKGRFTISRDNAKKTVYLQMNSLKPEDTAVYYCAADRRYYSDLYYWGQGTQVTVSS | low polyreactivity
31 | QVQLVESGGGLVQAGGSLRLSCAASGRIFSYNTMGWYRQAPGKERELVAAISCSGGSTSYADSVKGRFTISRDNAKNTVYLQMNSLKPEDTAVYYCATGSKRNPFYRGNYWGQGTQVTVSS | low polyreactivity
32 | QVQLVESGGGLVQAGGSLRLSCAASGRIFSYYAMGWSRQAPGNERELVAAITWSGGRTYYADSVKGRFTISRDNAKNTVYLQMNSLNPEDTAVYYCAADYYYGSLWDNKLGYWGQGTQVTVSS | high polyreactivity
